Consider two molecules from patent publication US12460006B2, “Antibodies against integrin alpha 11 beta 1” (Momenta Pharmaceuticals, Inc., priority 2019, dated 2025).

One assay addresses T1, α11β1 I Domain (Homo sapiens, UniProt Q9UKX5).
T1 sequence (Q9UKX5 164-345 limits assumed): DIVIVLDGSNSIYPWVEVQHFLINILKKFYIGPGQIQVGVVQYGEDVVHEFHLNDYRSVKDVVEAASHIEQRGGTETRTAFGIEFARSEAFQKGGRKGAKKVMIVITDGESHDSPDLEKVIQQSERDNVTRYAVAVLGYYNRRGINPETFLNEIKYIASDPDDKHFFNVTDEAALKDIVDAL
In words: SPR binding to α11β1 I Domain. The settings on record: SPR data. As to the method:
(§1) The affinity of antibodies for human α11β1 was measured by surface plasmon resonance assay (SPR). Affinity was measured at pH 7.6 and 25° C. with a Biacore T200 instrument. Anti-HIS antibody was immobilized on the SPR sensor surface using EDC/NHS covalent attachment. HIS-tagged human α11β1 was captured on the sensor surface and a single-cycle kinetics assay was used. Increasing concentrations of test antibody were injected in series over the sensor-bound α11β1. Dissociation was monitored for 1000 seconds. A sensor surface with only anti-HIS antibody and a series of blank injections were used to double-reference subtract the data. A 1:1 Langmuir model was fit to the data to estimate the kinetic association and dissociation constants. The affinity (equilibrium dissociation constant) of the interaction was calculated by dividing the kinetic dissociation constant by the kinetic association constant. Between injection cycles α11β1 and bound antibody were removed with an injection of 10 mM glycine at pH 1.5.
(§2) The binding affinity of antibodies for the α11β1 Headpiece and α11β1 I Domain as measured by SPR is shown in FIG. 10A and FIG. 10B, respectively.
A general note: In SPR one partner is held on a chip, and binding of the other changes the refractive index at the surface.

For assay [1], the system named is CHO cell lines expressing α11. In words: Collagen gel contraction assay. It is filed as cell-based, human. Particulars: vs untreated. As to the method:
24-well plates were blocked with 2% BSA in PBS overnight at 37° C. The following day, the plates were washed 3 times with PBS before being used in the assay. Human CHO cell lines expressing α11 were harvested and resuspended at 1.25×10^6 in ExpiCHO Expression Medium (Gibco™ Cat #A2910002). The collagen gel solution was prepared by diluting 3 mg/mL stock collagen type I (Gibco™ Collagen I Rat Protein, Tail Cat #A1048301) to 1 mg/mL in the media containing the CHO cells. Sodium hydroxide was added to the solution to neutralize the pH and 400 μL of the collagen solution was added to each well of the 24-well plates. For the wells where the antibodies were included in the collagen gel solution, CHO cells were prepared at 2.5×10^6 and the antibodies were prepared at 2× final concentration in ExpiCHO media. The cells and antibodies were then combined 1:1 before the addition of the stock collagen type 1. The gels were allowed to polymerize for 60 minutes at 37° C. Antibodies were added to the ExpiCHO media, which was then layered on top of the polymerized gel (400 μL/well). The gels were incubated for 6 days at 37° C. before gel contraction was quantified. Images of each well were analyzed using Image J and gel contraction was determined as a percentage of the initial gel area.
Selected exemplary antibodies were tested for the ability to inhibit cell-mediated 3D gel contraction because this ability is directly linked to the functionality of the exemplary antibodies.

Another assay deals with α11β1 Headpiece. Description: SPR binding to α11β1 Headpiece. Details: species or system human. Particulars: SPR data. As to the method: as §1, §2
Assay [2] deals with CHO-K1 cells expressing human α11. Description: Cell adhesion inhibition (xCelligence), type I collagen. The class given is cell-based. The settings on record: CHO-K1 hu α11 cells; read-out: IC50 of blocking cell adhesion to type I collagen. The protocol:
0.6×10^6 cells/mL were incubated with each antibody at a range of concentrations for 20 minutes at 37° C. E-Plate VIEW 96 PET plate coated with 100 ng/mL type I collagen or PBS overnight at room temperature was blocked in 3% BSA for 1 house at room temperature. After washing the plate with PBS, cell and antibody mixture was added to the wells and the plate was places into an xCelligence machine. Cell adhesion was recorded over 6 hours. The time point of maximum cell adhesion was used for comparison relative to control.
A CHO-K1 hu α11 cell line was used to assess the ability of mAbs to block α11β1-mediated binding to type I collagen. […] In the “Untreated” condition, cells were plated on type I collagen but no antibody was added and in the “Uncoated” condition, cells were seeded onto BSA-coated wells containing no type I collagen. Statistics were performed using one-way ANOVA followed by Dunnett's multiple comparisons test. […] Therefore, it is possible that these mAbs bind on an α11β1 domain that keeps the integrin in a low or intermediate affinity state. […] Nine human mAbs were also tested for their ability to inhibit the binding of human CHO-α11 cells to type I collagen.

B1: 1994_01_C07: fully human anti-α11β1 mAb (phage display); HCDR3 SEQ ID NO: 267, LCDR3 SEQ ID NO: 271 (antibody, V domains shown)
VH: QVQLVQSGAEVKKPGASVKVSCKASGYTFTSYGISWVRQAPGQGLEWMGWISAYNGNTNYAQKLQGRVTMTTDTSTSTAYMELRSLRSDDTAAYYCARVTGITGTTIDPWGQGTMVTVSS
VL: DIQMTQSPSSLSASVGDRVTITCRASQSISSYLNWYQQKPGKAPKLLIYDASSLESGVPSRFSGSGSGTEFTLTISSLQPDDFAVYYCQQYNNWPQTFGQGTKVEIK
Take B1: the “binding to the I domain of α11β1” value in the assay with α11β1 I Domain is “do not bind”. The “inhibition of CHO-hu α11-mediated collagen gel contraction” value in assay [1] is “inhibited CHO-hu α11-mediated collagen gel contraction”. Also, in the assay on α11β1 Headpiece, the “binding to the headpiece domain of α11β1” value was “do not bind”. The IC50 in assay [2] is 3.3 nM.

B2: 1994_01_D12: fully human anti-α11β1 mAb (phage display); HCDR3 SEQ ID NO: 267, LCDR3 SEQ ID NO: 334 (antibody, V domains shown)
VH: QVQLVQSGAEVKKPGSSVKVSCKASGYTFTSYGISWVRQAPGQGLEWMGWISAYNGNTNYAQKLQGRVTMTTNTSTSTAYMELRSLRSDDTAVYYCARVTGITGTTIDPWGQGTLVTVSS
VL: DIQMTQSPSSLSASVGDRVTITCRASQSISSYLNWYRQKPGKAPKLLIYAASSLQSGVPSRFSGSGSGTDFTLTISSLQPEDAATYYCQQYDSQSGTFGQGTKLEIK
As for B2, the “inhibition of CHO-hu α11-mediated collagen gel contraction” value in assay [1] is “inhibited CHO-hu α11-mediated collagen gel contraction”.

One may read the IC50 as the point on the concentration scale where inhibition reaches its midpoint.
